Consider 14 sequences from a protein production outcome set (Wang et al. 2014).

A short description of the data set: label from the status in PepcDB records.
Consider “MSRKRSTKPKPAAKIALKKENDQFLEALKLYEGKQYKKSLKLLDAILKKDGSHVDSLALKGLDLYSVGEKDDAASYVANAIRKIEGASASPICCHVLGIYMRNTKEYKESIKWFTAALNNGSTNKQIYRDLATLQSQIGDFKNALVSRKKYWEAFLGYRANWTSLAVAQDVNGERQQAINTLSQFEKLAEGKISDSEKYEHSECLMYKNDIMYKAASDNQDKLQNVLKHLNDIEPCVFDKFGLLERKATIYMKLGQLKDASIVYRTLIKRNPDNFKYYKLLEVSLGIQGDNKLKKALYGKLEQFYPRCEPPKFIPLTFLQDKEELSKKLREYVLPQLERGVPATFSNVKPLYQRRKSKVSPLLEKIVLDYLSGLDPTQDPIPFIWTNYYLSQHFLFLKDFPKAQEYIDAALDHTPTLVEFYILKARILKHLGLMDTAAGILEEGRQLDLQDRFINCKTVKYFLRANNIDKAVEVASLFTKNDDSVNGIKDLHLVEASWFIVEQAEAYYRLYLDRKKKLDDLASLKKEVESDKSEQIANDIKENQWLVRKYKGLALKRFNAIPKFYKQFEDDQLDFHSYCMRKGTPRAYLEMLEWGKALYTKPMYVRAMKEASKLYFQMHDDRLKRKSDSLDENSDEIQNNGQNSSSQKKKAKKEAAAMNKRKETEAKSVAAYPSDQDNDVFGEKLIETSTPMEDFATEFYNNYSMQVREDERDYILDFEFNYRIGKLALCFASLNKFAKRFGTTSGLFGSMAIVLLHATRNDTPFDPILKKVVTKSLEKEYSENFPLNEISNNSFDWLNFYQEKFGKNDINGLLFLYRYRDDVPIGSSNLKEMIISSLSPLEPHSQNEILQYYL”, for which the protein production result is “failed”.
As for “MISSLSASSSLVSSFVAVKATPVTGPLIPRRDLLSIRIRASSNQNSSGYCFPEKFKSFAKSAILIGAAVSMTGKFSTLPVKAESPVTTIEKTYEEVKEEKLSEITPLSELLDSTPEAVETLRSLLQQKLEKGEDEEALKLLERLVAAQPEETEWKFLMARLLGEMGRPENARQMFEEILQRNPLSFEALFENALLMDRSGEGNAVLQRLEDALAVAEAEYLVKEARDVRLIIAQIHFLQKNVDEALKSYEQLTKEDPKDFRPYFCRGMIYSLLDKNVEAKEQFAKYRELSPKKFEVEGYLRTPLSKMKLFGGSEEN”, the entry is “failed”; as for “MNALKGRDILALGFMTFALFVGAGNIIFPPIVGLQSGPHVWLAALGFLITAVGLPVITVIALAKVGGSVDALSHPIGRYAGGLLAAVCYLAVGPLFAIPRTATVSFEVGVVPLLGESGTALFVYSLAYFLLALAISLYPGRLLDTVGRFLAPLKILALAILGVAAFLWPAGPIGTAQPEYTQAAFSQGFVNGYLTMDTLAALVFGIVIVNAIRSRGVQSPRLITRYAIVAGLIAGVGLVLVYVSLFRLGAGSHAIAADASNGAAVLHAYVQHTFGSLGSSFLAGLIALACLVTAVGLTCACAEYFCQRLPLSYRSLVIILAGFSFIVSNLGLTKLIQVSIPVLTAIYPPCIVLVALSFCIGLWHSATRILAPVMLVSLAFGVLDALKAAGLGQDFPQWLLHLPLAEQGLAWLIPSVATLAACSLVDRLLGKPAQVAA”, “failed”.
Then “FKDLRLVSYTLLFDFIVSRVIDLIGEGGYAGKGFMIITKRPDQLAKAINDDLGRGVTFISGQGYYSKENLKIIYCIVGRNEIVKTKEMIHRIDPQAFITITEAHEILGEGFTFEKE”, with “failed”; and “AKTWVLTNAEEGIDKGNWQINSDQLKVKDHAFSIEQKVLHGGKQEGSKILTIHSKDGLTITLSPTRGMNLLRIEGFGSRMGWDSPVKEVVNPAFINLESRNGLGWLEGFNEMMVRCGYEWTGHPVTADGQIYTLHGKAGNTPASLVEVEVADSAPYEIRIRGLVKESTFKKADLQTLTELRYVPGSNSFSLHDVLTNHADYPHDYQIIYHSNFGTPILEEGARFLAPISSISPFNDYAKSGLKTWQTYQGPTKDFDEMVFNIQPLADENHQTLAAVVNKAGDKGASIQFDTRQLPVLTLWKNTDTVKQGYVTGIEPGTSYAYPVTIERKQKRVKQLQPGASAQFDLTYTLLHDSAQVAAVEQKIAKIQGDNKVAENETPIAKE”, with “not failed”.
Then “MFKVPKQSYTAEFKAAAVQRVKDGQGVGAVARELSVSEQTLRNWMKAEQAGKLGGAGAKVVTPEQMELSRLRAENKRLQMELEIAKKAAAYFAKDLL”, with “failed”.
In the case of “MKLAYWMYAGPAHIGTLRVATSFKNVHAIMHAPLGDDYFNVMRSMLSRERDFTPVTTSVVDRHVLARGSQEKVVDNITRKDAEERPDLIVLTPTCTSSILQEDLENFVERAQLEAKGDVLLADVNHYRVNELQAGDRTLHQIVQYYIEKARKKGELPEGKTAKPSVNIIGISTLGFHNNHDCTELKRLMADLGIEVNAVIPEGASVHELKNLPRAWFNLVPYRELGLMTANYLEKEFGTPCIDIVPMGVVETARCIRKIQEVINAQGADVNYEDYINEQTLYVSQAAWFSRSIDCQNLTGKKAVVFGDNTHAAALTKILSREMGIHVVWAGTYCKYDADWFREQVSEYCDEVLITEDHGEIGDAIARVEPSAIFGTQMERHVGKRLDIPCGVIAAPIHVQNFPIGYKPFLGYEGTNQITDLIYNSFTLGMEDHLLEIFGGHDTKEVITKGISAGSDLSWTKDGLAELNKIPGFVRGKVKRNTEKFARDRGFKDISAEVLYAAKEAVGA”, the protein production result is recorded as “failed”.
For the sequence “MSDHEAGHKFLARLGKKRLRPGGRKATEWLLSQAAFRQDSVVLEVACNMGTTAMEIARRFGCKVIGADMDKAALQKAQENVAANGLASQVTIMQANALELPFPDNHFDVVINEAMLTMYADKAKSRIIAEYYRVLKPGGRLITHDIMLLSEKDTGALQAVEQMHKAINVHAQPMLRERWVTLFQECGFSKVNYDNGAMTLLTPQGLIYDEGVAGAARIVKNALKKENRSMFFNMFHTFRRNRNQLNYIAVCSTK”, the protein production result is recorded as “failed”.
Then “MDKPVVRDAALLIFRAVLGVIFVAHGWEKLFISGVTKTTGQFSAWGVPQPKLSVWITSISELLGGAFLVVGLLTTFVAGALALLIAAAIYFVHLSSGFFTVENGIEFPLLIIVSLLVIVVFGSGRASVDGVLTRG”, with “failed”; and “MIPPSYCFYYFIHSGGLLSLKIRCENFIRSIADLIRKAEIELPDDVVNALRKAESIEENQVAKSQLQAILKNIEIAKNHAVPMCQDTGIMIFFAELGTEFQPGFDLEAAVRDAVVLATREIPLRPNAVDPLNRNNSGNNTGSGIPDIHWKLVPGKQLKITVSPKGAGSENMSALRMFNPTEAGSIKNFVLETVINAGGMPCPPLTLGIGIGGSFDKAARLAKEALLEPLDAPMNELEQEVLEAVNALGIGCMGLGGSTTALAVHIKTAHCHTASLPVAINIQCWANRHASIVFGEEE”, with “failed”.
As for “MSLDYDLLIKNGQTVNGMPVEIAIKEKKIAAVAATISGSAKETIHLEPGTYVSAGWIDDHVHCFEKMALYYDYPDEIGVKKGVTTVIDAGTTGAENIHEFYDLAQQAKTNVFGLVNISKWGIVAQDELADLSKVQASLVKKAIQELPDFVVGIKARMSRTVIGDNGITPLELAKQIQQENQEIPLMVHIGSAPPHLDEILALMEKGDVLTHCFNGKENGILDQATDKIKDFAWQAYNKGVVFDIGHGTDSFNFHVAETALREGMKAASISTDIYIRNRENGPVYDLATTMEKLRVVGYDWPEIIEKVTKAPAENFHLTQKGTLEIGKDADLTIFTIQAEEKTLTDSNGLTRVAKEQIRPIKTIIGGQIYDNEGHHHHHH”, the entry is “not failed”.
As for “MAAPLAPWRVSAFNTAKQSENKMHDDTVARRFGFTGGLVPGVEVMAYMMHLPVARWGRDFLERGLIEARFVKPVYDGETATVTGEEQGEAITLAVESRGELCATGSASLPVRAPAVDLGAYPETAAATNRPPVGAQSFPEGHWFGTAPVNWGGAKLRDYLDEIRETDPIYRSDDLIHPGTLQRIMNRVLVDNVVLGPWIHVGSKMQLLAAARGDDVLTARAKVVANYDKKGHRFAEFDALIVANGDRPVAHCHHVAIFAPRQQAAA”, the entry is “failed”; as for “MTLLQQIMWGSLYLGLCFVVEVLLLVWCTLVIVHLSIRLRHLSRAMRTAAVISVSLAFIVLAHTLQVWLWAGVWIWSDVLTDWNEALYFSLVTYTTLGYGDIVLGPGLRIFAAFAAVAGLLAFGLSTAYLVALMSRVFEGRLPR”, “failed”.
As for “MGHHHHHHSHSSFQTMDQMVSNMRNYMQKLERNFGQLSVDPNGHSFCSSSVMTYSKIGDEP”, the protein production result was “failed”.
